Data reported in US9926369B2, “Methods for treating hepatocellular cancer by administering an anti-Ang-2 antibody” (Regeneron Pharmaceuticals, Inc., priority 2009, dated 2018).
Where a chain is given by its changes, count along the chain named.

Columns and labels:
[1] = test system: Tie-2 phosphorylation (Ang-2-mediated) in HUVECs; assay: Inhibition of Ang-2-mediated Tie-2 phosphorylation in FOXO1-adenovirus infected HUVECs; type: cell-based, human; conditions: antibody 0.5 μg/ml
Method: Further, the inventors have shown that infection of HUVECs with an adenovirus encoding FOXO1 results in expression and secretion of Ang-2, followed by activation of Tie-2 phosphorylation (Daly et al. 2006 PNAS 103:15491).
Anti-Ang-2 antibodies were tested for their ability to inhibit Tie-2 phosphorylation. Briefly, 7×10^5 HUVECs (Vec Technologies, Rensselaer, N.Y.) were plated in 6 cm cell culture dishes in 3.5 ml of MCDB131 Complete medium (Vec Technologies, Rensselaer, N.Y.). The following day, the cells were washed with Opti-MEM (Invitrogen Corp., Carlsbad, Calif.) and fed with 2 ml of Opti-MEM. […] Cells were then washed with MCDB131 and fed with 2 ml of MCDB131 containing anti-Ang-2 antibodies at a concentration of 0.5 μg/ml. At twenty hours post infection, cells were lysed and subjected to Tie-2 immunoprecipitation as described by Daly et al., Proc. Natl. Acad. Sci. USA 103:15491-15496 (2006). Immunoglobulin was collected on protein A/G beads (Santa Cruz Biotechnology, Santa Cruz, Calif.) for one hour. Beads were washed with cold lysis buffer and resuspended in SDS sample buffer for analysis by western blot with antibodies specific for phosphotyrosine (Millipore, Billerica, Mass.) or Tie-2. Signals were detected using HRP-conjugated secondary antibodies and ECL reagents (GE Healthcare, Piscataway, N.J.). X-Ray films were scanned and the phospho-Tie-2 and Tie-2 signals were quantified using ImageJ software. The phospho-Tie-2/Tie-2 ratios were used to determine the % inhibition for each anti-Ang-2 antibody (i.e. Percent inhibition=Reduction in phospho-Tie-2/Tie-2 as compared to control).

[2] = test system: COLO 205 (Human Colorectal Adenocarcinoma Cell Line) tumors; assay: COLO 205 mouse tumor model; type: in vivo, mice; conditions: COLO 205, NCr nude mice, 4 mg/kg intraperitoneal twice per week; for Avg Tumor Weight: approximately two weeks
Method: Briefly, 2×10^6COLO 205 cells in 100 μl of serum-free medium were injected subcutaneously into the flank of 6-8 week old male NCr nude mice (Taconic, Hudson, N.Y.). After tumor volumes reached an average of about 150 mm^3, mice were randomized into groups for treatment with antibody or Fc protein. Mice in each treatment group were administered an anti-Ang-2 antibody or Fc protein at a concentration of 4 mg/kg via intraperitoneal injection twice per week for approximately two weeks. Tumor volumes were measured twice per week over the course of the experiment and tumor weights were measured upon excision of tumors at the conclusion of the experiment. Averages (mean+/−standard deviation) of tumor weight and growth were calculated for each treatment group. “Avg. Tumor Growth” represents the average growth from the time of treatment initiation (when tumors were approximately 150 mm^3). Percent decrease of tumor weight and growth are calculated from comparison to Fc protein measurements.
A similar experiment was carried out to assess the effect of H1H685P, in particular, on COLO 205 tumor growth. Briefly, 2×10^6 COLO 205 cells in 100 μl of serum-free medium were implanted subcutaneously into the right hind flank of 9-11 week-old male SCID CB17 mice. When the tumors reached ˜125 mm^3, mice were randomized into 5 groups (n=7-8 mice/group) and treated twice per week with Fc protein (15 mg/kg), H1H685P (5 or 25 mg/kg) or Control II (5 or 25 mg/kg) for a period of 19 days. Tumor volumes were measured twice per week over the course of the experiment and tumor weights were measured upon excision of tumors at the end of the experiment. Averages of tumor weight and growth from the beginning of treatment were calculated for each group. Percent decrease of tumor weight and growth are calculated from comparison to the Fc control group.
To determine the effect of combining an anti-Ang-2 antibody with a VEGF inhibitor on the growth of COLO 205 xenografts, 2×10^6 cells were implanted subcutaneously into the right hind flank of 6-8 week-old female SCID mice. When the tumors reached an average volume of ˜350 mm^3, mice were randomized into 4 groups (n=6 mice/group) and treated with: human Fc protein (7.5 mg/kg), H1H685P (5 mg/kg), VEGF Trap (see U.S. Pat. No. 7,087,411) (2.5 mg/kg) or the combination of H1H685P+VEGF Trap. Mice were given a total of 3 doses over 10 days of treatment. Tumor volumes were measured twice per week over the course of the experiment. Averages of tumor growth from the start of treatment (mean+/−standard deviation) were calculated for each treatment group. Percent decrease of tumor growth was calculated from comparison to the Fc control group.
To test the effect of H1H685P in combination with a chemotherapeutic agent on tumor growth, 2.5×10^6 COLO 205 tumor cells were implanted subcutaneously into the right hind flank of 8-9 week-old male SCID mice. When the tumors reached an average volume of ˜150 mm^3 (day 17 after implantation), mice were randomized into 4 groups (n=5 mice/group) and treated as follows: the first group was treated sc with 15 mg/kg hFc and intraperitoneally (ip) with 5-FU vehicle; the second group was treated sc with 15 mg/kg of H1H685P; the third group was treated ip with 75 mg/kg of 5-FU; the fourth group was treated with the combination of 15 mg/kg H1H685P sc plus 75 mg/kg 5-FU ip. Mice received a total of three treatments, administered every 3-4 days. Tumor volumes were measured twice per week over the course of the experiment. Average (mean+/−standard deviation) tumor growth from the beginning of treatment until day 38 was calculated for each group. Percent decrease of tumor growth was calculated from comparison to the control group.

[3] = test system: PC3 (Human Prostate Cancer Cell Line) tumors; assay: PC3 mouse tumor model; type: in vivo, NCr nude mice; conditions: PC3, 2 mg/kg twice per week
Method: Briefly, 5×10^6 PC3 cells in 100 μl of growth factor-reduced Matrigel (BD Biosciences) were injected subcutaneously into the flanks of 6-8 week old male NCr nude mice (Taconic, Hudson, N.Y.). After tumor volumes reached an average of about 200 mm^3, mice were randomized into groups for treatment. […] Tumor volumes were measured twice per week over the course of the experiment and tumor weights were measured upon excision of tumors at the conclusion of the experiment. Averages (mean+/−standard deviation) of tumor weight and growth were calculated for each treatment group. Percent decrease of tumor weight and growth were calculated from comparison to Fc protein measurements.

B1: H1M724N: anti-Ang-2 antibody, HCVR/LCVR SEQ ID NOs 266/274 (antibody, V domains shown)
VH: QVQLVESGGGVVQPGRSLRLSCAASGFTLSNYGMHWVRQAPGKGLEWVAVIWHDGSNTYYADSVKGRFTISRDNSKNTLYLQMNSLRAEDTAVYYCTREGLDFWSGYYPNWFDPWGQGTLVTVSS
VL: DIQMTQSPSSLSASVGDRVTITCRASQGIRNDLGWYQQKPGKAPKRLIYAASNLQGGVPSRFSGSGSGTEFTLTISSLQPEDFAAYYCLQHNIYPLTFGGGTKVEIK
Inhibition of Tie-2 phosphorylation [1]: +++ (75-100%) | Inhibition of Tie-2 phosphorylation (in words) [1]: Especially robust inhibition | % Decrease in Tumor Growth [2]: 54% | % Decrease in Tumor Weight [2]: 37% | Avg Tumor Growth [2]: 336 ± 125 mm^3 | Avg Tumor Weight [2]: 0.531 ± 0.103 g

B2: H1M732N: anti-Ang-2 antibody, HCVR/LCVR SEQ ID NOs 242/250 (antibody, V domains shown)
VH: EVQLVESGGGLVRPGGSLRLSCAASGFTFTNAWMSWVRQAPGKGLEWIGQIKSKTDGGTIDYAAPVKGRFTVSRDDSENTLFLQMNSLKTEDTAVYYCAGNWNYVDFDYWGQGTLVTVSS
VL: B1 VL with G28D, N53S, A85T, I93S, L96F, G100P, E105D
Inhibition of Tie-2 phosphorylation [1]: ++ (50-75%)

B3: H1H704P: anti-Ang-2 antibody, HCVR/LCVR SEQ ID NOs 186/188 (antibody, V domains shown)
VH: QVQLVESGGDVVQPGRSLRLSCAASGFTFSSYGMHWVRQAPGKGLEWVAIIWYDGSNKYYADSVKGRFTISRDNSKNTLYLQMNSLRVEDTAVYSCARDFSISSRHFDYWGQGTLVTVSS
VL: DIQMTQSPSSLSASVGDRVTITCRASQAINNYLAWFQQKPGKAPKSLIYATSNLQSGVPSQFSGSGSGTDYTLTISSLQPEDFATYYCQQYYIYPITFGQGTRLEIK
Inhibition of Tie-2 phosphorylation [1]: +++ (75-100%) | Inhibition of Tie-2 phosphorylation (in words) [1]: Especially robust inhibition

B4: H1H693P: anti-Ang-2 antibody, HCVR/LCVR SEQ ID NOs 90/92 (antibody, V domains shown)
VH: EVQLVESGGGLVQPGESLRLSCAASGFTFSSYAMSWVRQGPGKGLEWVSSISGSGGTTYYADSVEGRFTISRDNSKNTLYLHMNSLRAEDTAVYYCAKDFLDYSTYLAFDLWGQGTMVTVSS
VL: DIQMTQSPSSVSASVGDRVTITCRASQGISSWLAWYQQKPGKAPKLLIYAASSLQSGVPSRFSGSGSGTDFTLTISSLQPEDFATYYCQQANSFPRTFGQGTKVEIK
Inhibition of Tie-2 phosphorylation [1]: +++ (75-100%) | Inhibition of Tie-2 phosphorylation (in words) [1]: Especially robust inhibition

B5: H2M743N: anti-Ang-2 antibody, HCVR/LCVR SEQ ID NOs 410/418 (antibody, V domains shown)
VH: EVQLLESGGGLVQPGGSLRLSCAASGFTFRKYAMSWVRQAPGKGLEWVSVISVSGGNTYYADSVKGRFTISRDNSKNTLYLQLNSLRAEDTAVYYCAKDLTDIVLMVYVDYWGQGTLVTVSS
VL: B4 VL with G28D, S30D, S31R, S77T, F94L, R96F, Q100G
Inhibition of Tie-2 phosphorylation [1]: +++ (75-100%) | % Decrease in Tumor Growth [3]: 50% | % Decrease in Tumor Weight [3]: 41% | Avg Tumor Growth [3]: 179 ± 169 mm^3 | Avg Tumor Weight [3]: 0.372 ± 0.122 g

B6: H2M750N: anti-Ang-2 antibody, HCVR/LCVR SEQ ID NOs 458/466 (antibody, V domains shown)
VH: QVKLVESGGGVVQPGRSLRVSCAASGFTFSSYGMHWVRQAPGKGLEWLAIIWYDGDNKYYSDSVKGRFTISRDNSKNTLYLQMNSLRAEDTAEYYCVRDASIASRFLDYWGQGTLVTVSS
VL: DIQMTQSPSSLSASIGDRVTITCRATQDINNYLAWFQQKPGKAPKSLIYATSNLQSGVPSKFSGSGSGTDYTLTISSLQPEDFSTYYCQQYHSYPLTFGGGTKVEIK
Inhibition of Tie-2 phosphorylation [1]: +++ (75-100%) | Inhibition of Tie-2 phosphorylation (in words) [1]: Especially robust inhibition | % Decrease in Tumor Growth [3]: 52% | % Decrease in Tumor Weight [3]: 37% | Avg Tumor Growth [3]: 227 ± 195 mm^3 | Avg Tumor Weight [3]: 0.348 ± 0.128 g

B7: H1M749N: anti-Ang-2 antibody, HCVR/LCVR SEQ ID NOs 314/322 (antibody, V domains shown)
VH: QVQLVESGGGVVQPGRSLRLSCAASGFTFSSYGMHWVRQAPGKGLEWVAVIWYDEFNKYYADSVKGRFTISRDNSKNTLYLQMNSLRAEDTAVYYCARERESGYSYGFDYWGQGTLVTVSS
VL: EIVMTQSPATLSVSPGERATLSCRAGQSVSSNLAWYQQKPGQAPRLLIYGASTRATGIPARFSGSGSGTEFTLTISSLQSEDFAVYYCQQYNNWWTFGQGTKVEIK
Inhibition of Tie-2 phosphorylation [1]: ++ (50-75%) | % Decrease in Tumor Growth [3]: 54% | % Decrease in Tumor Weight [3]: 31% | Avg Tumor Growth [3]: 220 ± 261 mm^3 | Avg Tumor Weight [3]: 0.383 ± 0.275 g | % Decrease in Tumor Growth [2]: 39% | % Decrease in Tumor Weight [2]: 29% | Avg Tumor Growth [2]: 449 ± 169 mm^3 | Avg Tumor Weight [2]: 0.603 ± 0.142 g

B8: H2M742N: anti-Ang-2 antibody, HCVR/LCVR SEQ ID NOs 386/394 (antibody, V domains shown)
VH: DVQLLESGGDLVQPGGSLRLSCEASGFTFRNYVMIWVRQAPGKGLEWVSGISNSGGTTHYTDSVKGRFTISRDNSKNTLYLQINSLRAEDTAVYYCAKGYLDTSLIEGNWFDPWGQGTLVTVSS
VL: NIVMTQSPLSLPVTPGEPASISCRSSQSLLHSNGFNYLNWFLQKPGQSPQLLIYLGSNRASGVPDKFSGSGSGTDFTLNINRVEAEDVGIYFCMQTLQTPLTFGGGTKVEIK
Inhibition of Tie-2 phosphorylation [1]: ++ (50-75%) | % Decrease in Tumor Weight [3]: 35% | Avg Tumor Growth [3]: 220 ± 102 mm^3 | Avg Tumor Weight [3]: 0.407 ± 0.076 g | % Decrease in Tumor Growth [2]: 42% | % Decrease in Tumor Weight [2]: 32% | Avg Tumor Growth [2]: 427 ± 92 mm^3 | Avg Tumor Weight [2]: 0.576 ± 0.057 g
